Test: yeast display, Sf9 membrane polyspecificity reagent, FACS + sequencing; frameworks hold sequencing errors
Outline: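 Nanobodies came from a synthetic yeast display library in Saccharomyces cerevisiae BJ5465, induced with galactose for 36–48 hours and stained for 1 hour at 4 °C with 10% biotinylated, detergent-solubilized Sf9 membrane reagent. Cells were enriched on streptavidin microbeads and then FACS-sorted, with low and high (top ~1%) gates set on anti-HA fluorescence for expression and streptavidin fluorescence for reagent binding. Each polyreactivity label reflects the gate a clone came from. Genes were amplified by colony PCR, sequenced by MiSeq 2 × 250 and filtered by CDR length.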

Sequence | polyreactivity (PSR sort gate)
QVQLVESGGGLVQAGGSLRLSCASSGTFHKYAMGWYRQAPGKERELVASISRSGGSTSYADSVKGRFTISRDNAKNNVYLQMNSLKPEDTAVYYCNTPWGAYKYDYWGQGTEVTVSS | high polyreactivity
QVQLVESGGGLVQAGGSLRLSCASSGYIFSLSGMGWYRQAPGKERELVAAITGSGGGTYADSVKGRFTISRDNAKNTVYLQMISLKPEDTAVYYCAAGGYRRRFWPIYDYWGQGTQVSVSS | low polyreactivity
QVQLVESGGGLVQAGGSLRLSCASSGYTFALYAKGWYRQAPGKERELVAAITDSDGSTYADSVKGRFTITRDNAKNTVYLQMNSVKPEDTAVYYCAAESEQWYSYVLSYDWEYDYWGQGTQVTVSS | low polyreactivity
QVQLVESGGGLVQAGGSLRLSCASSRFNFRSYAMGWYRHPPGKERELVAAISRSGGSTYYADSVKGRFTISRDNAKNTVYLQMNSLKPEDTAVYYCAAEYRIPYFFTYGYWGQGTQVTVSS | high polyreactivity
QVQLVESGGGLVQAGGSLRLSCASYGSIFAYYTMGWYRQAPGKARELVATISSRGGSKNYADSVKGRFTISRDNAKNPVYLQMNSLRPEDTAVYYCYAYHYQSGITVSEYDYWGQGTQVTVSS | high polyreactivity
QVQLVESGGGLVQAGGSLRLSCATSGFTFGWNYMGWYRQAPGKERELVAAITWSGGSTYYADSVKGRFTISRDNAKNTVYLQMNSLKPEDTAVYYCAAVVSDYVWRYEYWGQGSQVTVSS | low polyreactivity
QVQLVESGGGLVQAGGSLRLSCATSGRTFSQYAMGWYRQAPGKERELVAVISGSGGSTYYADSVKGRFTISRDNAKNTVYLQINSLKPEDTAVYYCAKRATSWHQYDYWGQGTQVTVSS | low polyreactivity
QVQLVESGGGLVQAGGSLRLSCATTGSTFQVYTMGWNRQAPGKEREFVASISWSGSSTYYADSVKGRFTISRDNAKNTVYLQMNSLKPEDTAVYYCAARARIKYLADPGYYWGQGTQVTVSS | high polyreactivity
QVQLVESGGGLVQAGGSLRLSCAVSGRIFRRNVMGWYRQAPGKDRELVAGISDSGDSTYYADSVKVRFTISRDNAKNTVYLQMNSLKPEDTAVYYCNARYSTTYYGTIYRGMDYWGQGTQVNVSS | high polyreactivity
QVQLVESGGGLVQAGGSLRLSCDAAGLIFRLNAMGWYRPAPGKERELVAAISFSGGGTYYADSVKGRFTISRDNAKNTVYLQMNSLKPEDTAVYFCAADEYAVYYYYNYEYWGQGTQVTVSS | high polyreactivity
QVQLVESGGGLVQAGGSLRLSCDASGFIFKGNAMGWYRHAPRKERELVAAITNRGGGTYYADSVKGRFTISRDNAKNTVYLQMNSLKPEDTAVYYCAKAYTRPFHPYDYWGQGTQVTVSS | high polyreactivity
QVQLVESGGGLVQAGGSLRLSCDASGFIFRYYDMGWYRQAPGKERELVAAISWRGGRTYYADSVKGRFTISRDNAKNTVYLQMNSLKPEVTAVYYCAAGFSLWTYPKPYGEDSWGQGTQVTVSS | high polyreactivity
QVQLVESGGGLVQAGGSLRLSCDASGFIFYYYDMGWYRQAPGKERELVASIDNGGDTNYADSVKGRFTISLDNAKNTVYLQMNSLKPEDTAVYYCAAPYSPLWYPGGDYWRQGTQVTVSS | low polyreactivity
QVQLVESGGGLVQAGGSLRLSCDASGFNIASYDMGWYRQAPGKERELVAAISKGGGRTYYADSVKGRFTISRDNAKNTVYLQMKSLKPEDTAVYYCAAYAPYPRRAYDYWGQGTQVTVSS | low polyreactivity
QVQLVESGGGLVQAGGSLRLSCDASGFTFRVYAMGWYRQAPGKEREFVASIRSNDGRTYYADSVKGRFTISRDNAKNTVYLQLNSLKPEDTAVYYCAARYSPRGKRYDYWGQGTQVTVSS | high polyreactivity
QVQLVESGGGLVQAGGSLRLSCDASGGIFYGYAMGWYRQAPGKERELVAAISDSGGSTYYSDSVKGRFTITRDNAKNNVYLQMNSLKPEDTAVYYCATDAPVGGYVSEGDYWGQGTQVTVSS | low polyreactivity
QVQLVESGGGLVQAGGSLRLSCDASGITYHNYAMGWYRQAPGKEREYVAAITRNTASSYYADSVKGRFSISRDKAKNTVYFQMNSLKPEDTAVYYCAATDKKHRTAYDSWGQGTQVTVSS | low polyreactivity
QVQLVESGGGLVQAGGSLRLSCDASGLIFPWNSMGWYRQAPGQERELVAAINGRDGSTYYADSVKGRFTISRDNAKNTVYLQMNSLKPEDTAVFYCAKGPSGVRTYREYDSWGQGTQVTVSS | low polyreactivity
QVQLVESGGGLVQAGGSLRLSCDASGRIFGMYAMGWYRQSPGKEREFVAAISWRTGSTYYADSVKGRFTISRDNAKNTVYLQMNSLKPEDTAVYYCAAESAAKYGYWRQGTQVTVSS | high polyreactivity
QVQLVESGGGLVQAGGSLRLSCDASGRIFRGYAMGWYRKAPGKERELVAAISGRGGRTNYADSVKGRFTISRDNAKNTVYLQMNSLKTEDTAVYYCAVKRLSYPYVGHYYFWGQGTQVTVSS | high polyreactivity
QVQLVESGGGLVQAGGSLRLSCDASGRIFRVYAMGWYRPAPGKERELFAAISWSGGRTYYADSVKGRFTISRDNAKNTVYLQMNSLKPEDTAVYYCAAERGGPTYYSGGDYDYWGQGTQVTVSS | high polyreactivity

Sequence | polyreactivity (PSR sort gate)
QVQLVESGGGLVQAGGSLRLSCDASGRIFRYNAMGWYRQAPGKEREFVAAITWRGGSTYYADSVKGRFTISRDNAKYTVYLQMNSLKPEDTAVYYCATRSPFGAAYEYGYWGQGTQVTVSS | high polyreactivity
QVQLVESGGGLVQAGGSLRLSCDASGRIFSENAMGWYRQAPGKERELVDAITGNGGDTYYADSVKGRFTISRDNAKNTVYLQMNSLKPEDTAVYYCAAVTGGLGGDYWGQGTQVTVSS | low polyreactivity
QVQLVESGGGLVQAGGSLRLSCDASGRIFYANAIGWYRQAPGKEREFVAAITRSGGSTYYADSVKGRFTISRDNAKNTVYLQMNSLKPEETAVYYCAAQGGDVYGWRYYYWGQGTQVTVSS | low polyreactivity
QVQLVESGGGLVQAGGSLRLSCDASGRIFYGYVMGWYRQAPGKERELVAAINQSGTSTYYADSVKGRFTISRDNAKNTVYLQMNSLKPEDTAVYYCAADQVGWTYDYWGQGTQVTVSS | low polyreactivity
QVQLVESGGGLVQAGGSLRLSCDASGRTFASNVMGWYRQAPGKERELVAAISRRGGSTYYADSVKGRFTISRDNAKNTVYLQMNSLKPEDTAVYYCNADDKAQSDYWGQGTQVTVSS | high polyreactivity
QVQLVESGGGLVQAGGSLRLSCDASGRTFGQNAMGWYRQAPGTERELVDAISASGSNTYYADSVKGRFTISRDNAKNTVYLQMNSLKPEDTAVYYCAKQVYRPGQQSRYDYWGQGTQVTVSS | low polyreactivity
QVQLVESGGGLVQAGGSLRLSCDASGRTFGVYAMGWYRQAPGKERELVAAISTRGGSTYYADSVKGRFTISRDNAKNTVYLQMNSLKPEDTAVYYCAAEQYVWGYWFNYGYWGQGTQVTVSS | high polyreactivity
QVQLVESGGGLVQAGGSLRLSCDASGRTLGGYTMGWYRQAPGKERELVAAITTGGSTNYADSVKGRFTISRDNAKNTVYLQMNSLKPEDTAVYYCATDLVFDKRYWYDYWGQGTQVTVSS | low polyreactivity
QVQLVESGGGLVQAGGSLRLSCDASGRTSGINAMGWYRQAPGKERELVAAISSGGRTYYADSVKGRFTISRDNAKNTVYLQMNSLKPEDTAVYYCAAVIHWSLYRRMEYWGQGTQVTVSS | high polyreactivity
QVQLVESGGGLVQAGGSLRLSCDASGRTYTGYAIGWYRQAPGKERELVAAISKSGGRTYYADSVKGRFTISRDYAKNTVYLQMNSLKPEDTAVYYCAKVETFLQIAYRRGYDSWGQGTQVTVSS | low polyreactivity
QVQLVESGGGLVQAGGSLRLSCDASGSIFDGYGMGWYRQAPGKERELVASITWNDGSTYYADSVKGRFTISRDNAKNTVYLQMNSLKPEETAVYYCAADQWGYEYDYWGQGTQVTVSS | low polyreactivity
QVQLVESGGGLVQAGGSLRLSCDASGSIFGWYAMGWYRQAPGKERELVAAITFSSVSTYYADSVKGRFTISRDNAKNTVYLLMNSLKPEDTAVYYCAAVVYYTFDYWGQGTQVTVSS | low polyreactivity
QVQLVESGGGLVQAGGSLRLSCDASGSIFIYYAMGWYRQAPGKERELVAAIDYSGDSTYYADSVKGRFTISRDNAKNTVYGQMNSLKPEDTAVYYCARRGFLVHWPRPSYDYWGQGTQVTVSS | low polyreactivity
QVQLVESGGGLVQAGGSLRLSCDASGSIFLFNAMGWYIQAPGKERELVASISRASSTSYADSVKGRFTISRDNAKNTVYLQMNSLKPEDTAVYYCAAVVASFEFRFDYWGQGTQVTVSS | low polyreactivity
QVQLVESGGGLVQAGGSLRLSCDASGSIFQNYAMGWYRQAPGKERELVAAINDDSTYYADSVKGRFTISRDNAKNTVYLQMNSLKPEDTAVYYCNAEDYVTLKIDLSWPYGYWGQGTQVTVSS | low polyreactivity
QVQLVESGGGLVQAGGSLRLSCDASGSIFSKYVMGCYRQAPGKERELVASITSGGSTNYADSVKGRFTISRDNAKNTVYLQMTSQKPEDTAVYFCAARAINTWYRSGVDDWCQGTQVTVSS | low polyreactivity
QVQLVESGGGLVQAGGSLRLSCDASGSIFYDYAMGWYRQAPGKERELVAAITSDTTTNYADSVKGRFTISRDNAKNTVYLQMNSLKPEDTAVYYCNTPPQWLGRYITLTFDYWGQGTQVTVSS | low polyreactivity
QVQLVESGGGLVQAGGSLRLSCDASGSIFYRYAMGWYRQAPGKERELVASISSGVSTNYADSVKGRFTISRDNAKNTVYLQMNSLKPEDTAVYYCAAYYRGWSSSYWYPAYNYWGHGTQVTVSS | low polyreactivity
QVQLVESGGGLVQAGGSLRLSCDASGSIIISYDMGWYRQAPGKERELVAAIRSRVGSTYYSDSVKGRFTISRDNAKNTVYLQMNSLKPEDTAVYYCAADWVWADFDYWGQGTNVTVSS | low polyreactivity
QVQLVESGGGLVQAGGSLRLSCDASGSIISYYTMGWYRQAPWKERELVAAISLTGGSTYYADSVKGRFTISRDNAKNTVYLQMNSLKPEDTAVYYCIAVRYASPYGYWGQGTLVTVSS | high polyreactivity

Reference: the nanobody polyreactivity screen of Harvey et al. (2022)
